Assay results taken from the DeepSol protein solubility set.

Assay: soluble on expression in E. coli; label from the status in PepcDB or PDB records

Sequence | soluble on expression in E. coli
MGSDKIHHHHHHMTALVCLTGSSCTDDENNGQGNNIIYGENIIGNGEQTFEIKDHQYLKRGTYLMKGWCYVTYGSTLTIEAGTVIKGDKETRAALIVEPGGKLIARGTVDAPIVFTSEMPAGKRKPGDWGGLILCGYARNNEDIMQIEGGPRTMHGGPNNADNSGVLSYVRVEFAGYPFKKNQEINGITFGSVGNGTQIDHLQVSYANDDAFEWFGGTVHAEYLVAYHCWDDDFDIDNGYSGTCRHLLGIRHPRIADITGSHAFECSNNGTNTPATPTTAATFEDVTIYGPASGDASFVNHPDFINGGGLRPENESMLGLFGAALYMGNNTSVTFRNCRISGYPSDMEGTPASADNVVFSEREETGYPEWTQGWCNFNPQETEY | not soluble
MGSDKIHHHHHHMNSSLQVGIGIDVGSSSARIGVYNYYNDALLEMAQEPVPYYQDSSKKSWKFWQKSTEIIKALQKCLQKLNIREYEVKSCGVSATCSLAIFERDRTSNMLIPYPNEDNVIFWMDSSAVNECQWLNMQCPQQLLDYLGGKFVPEMGVPKLKYFLDEYSHLRDKHFHIFDLHQYIAYELSRLYEWNIEGLLGRENLNGIGNDGEVSGWSSSFYKNIINLPSNVSIGTTSLVANKHISTTVVRSCIDSYASWFAVASPHLETSLFMIAGTSSCYMYGTTISDTRIPGVWGPFDTILDNRGDFSVYAAGQSCTGKLIEHLFESHPCARKILKDGADIYQVLEQTIRDIEKNNGLSIHILTKDMFFYGDYEGNRTPFADPRIKGSFIGESTDTSMLNLTYKYICILEFLSFQTKLIIDTFQNENSNIHIKELRISGSQAKNERLLSLISLVNNGVAIIKPKENVDMMGIKGAYVLAKSAKEKKQLADVITERDISNDSEKFESLAEYRLGNDSILLRKLLCVKYHIHLDMAKQQKRYHKLVDEVFQHL | not soluble
MGSDKIHHHHHHMKVLVVDNSRWWGGAEKNLQTLVDNRSNAIEFNVLSDYPMSHNITYRDFCGVRYRFDNSYFIRYLDNKYQIKGMRIFRLIYKSLYLIPSLVRYNPDIVHFNLYRSSDILDIIVCKILRKKVVLHIRSLANRIKIAPLTIKLADAVICVSKSVKQGFSFTGNKYHVIYNGIDSKYYHLVPQDQAREKLGINLTSFVIGSIGNLEREKGHDVAVKALKKIIDDGNVVVALIIVGKDSTINESETKRILTLSKDLGVQGHIKIFSISHKDIHYVYSACDIVLTLCIDGEAFGMIPLEAAMHNRPVIATNVGACRETIIHNQTGLLCEPNSPVALVQAIDTIMKDKKYCDQLTESARNRVLHKYSADAYRDSVYKIYITITKENKRKL | not soluble
MVDQATLDKLEAGFKKLQEASDCKSLLKKHLTKDVFDSIKNKKTGMGATLLDVIQSGVENLDSGVGIYAPDAESYRTFGPLFDPIIDDYHGGFKLTDKHPPKQWGDINTLVGLDPAGQFIISTRVRCGRSLQGYPFNPCLTAEQYKEMEEKVSSTLSSMEDELKGTYYPLTGMSKATQQQLIDDHFLFKEGDRFLQTANACRYWPTGRGIFHNDAKTFLVWVNEEDHLRIISMQKGGDLKTVYKRLVTAVDNIESKLPFSHDDRFGFLTFCPTNLGTTMRASVHIQLPKLAKDRKVLEDIASKFNLQVRGTRGEHTESEGGVYDISNKRRLGLTEYQAVREMQDGILEMIKMEKAAA | soluble
MTETKEERVHQVFEKIYKRYDVMNSVISFQRHKAWRKDTMKRMNVQEGQSALDVCCGTADWAIALGKAVGPTGHVEGLDFSENMLSIGKKKIADERLDHVFLRHGNAMELPYADDTFDFVTIGFGLRNVPDYMQVLREMARVTKPGGKVVCLETSQPTIPVFKQLYFFYFRHVMPLFGKMFAKSYDEYSWLQESTLSFPGRDRLAQMFKEVGLTDVQVKPYSGGAAAMHLGVKESYDEESRNVTCLEHHHHHH | not soluble
MGHHHHHHSHMTLIYVDADNTRNELKATTGSNFTITHRKDPLTTKWKTVFGNNGDQWLCNVTGIGNATVNSNATICVSSCGHNTLDLCNLKSGDSGFFDLSRWFGENMDEYSGDVWHLEVS | soluble
MDGGADLYKPGEPGAMKKPKSVRQERILTELNQAPSLRVAELARRLDVSTETIRRDLDEMTEQGLLNRTYGGAVRSLSTEPSVTERHTLFVGERERIAKAAVQILKGAQVLMIGSGSTTVHTARRIAVEMKNITVLTHSFGVATVLAINPTIKVVMLPGDYHATEGATVGAHAVSFLNSFYADFTILGASGLGPDGPSDALLECGAVYSAMVSRAARTIVVADHSKHDRLFPARYAPWRDIAHVVTDKAPGEDLTESLDSSGVKLTVCLEHHHHHH | soluble
MNKQLLSCSLKSGKQVTMVVASVATDGVDQQVEISYYDQKVIGNGSFGVVFLAKLSTTNEMVAIKKVLQDKRFKNRELQIMRKLNHPNIVKLKYFFYSSGEKKDELYLNLILEYVPETVYRVARHYSKQRQQIPMIYVKLYMYQLLRSLAYIHSIGICHRDIKPQNLLIDPESGVLKLCDFGSAKYLVRNEPNVSYICSRYYRAPELIFGATNYTNSIDVWSAGTVMAELLLGQPIFPGDSGVDQLVEIIKVLGTPTREQIQSMNPNYKEFKFPQIKAHPWNKVFRVHTPAEAIDLISKIIEYTPTSRPTPQAACQHAFFDELRNPDARLPSGRPLPTLEMDGPMGTGEVSTTSGDVAGPSA | not soluble
MDTFRVFSLFAGISINNSHLLEFAVKAGREVMELNEHRATLFNKNVPSRGVKRVTAITNREREAVLRIEFPNVDVTDIDFDLFQARESTDKPLDVAAAIAYRLLLGSGLPQKFGCSDEVLLNFILQCRKKYRNVPYHNFYHVVDVCQTIYTFLYRGNVYEKLTELECFVLLITALVHDLDHMGLNNSFYLKTESPLGILSSASGNKSVLEVHHCNLAVEILSDPESDVFGGLEGAERTLAFRSMIDCVLATDMARHSEFLEKYLEIMKTSYNVDDSDHRQMTMDVLMKAGDISNVTKPFDVSRQWAMAVTEEFYRQGDMEKERGVEVLPMFDRSKNMELAKGQIGFIDFVAAPFFQKIVDACLQGMQWTVDRTKSNRAQWERVLEARSTG | not soluble
EQHADPICNKPCKTHDDCSGAWFCQACWNSARTCGPYVG | soluble
MTIKNVICDIDGVLMHDNVAVPGAAEFLHGIMDKGLPLVLLTNYPSQTGQDLANRFATAGVDVPDSVFYTSAMATADFLRRQEGKKAYVVGEGALIHELYKAGFTITDVNPDFVIVGETRSYNWDMMHKAAYFVANGARFIATNPDTHGRGFYPACGALCAGIEKISGRKPFYVGKPSPWIIRAALNKMQAHSEETVIVGDNLRTDILAGFQAGLETILVLSGVSSLDDIDSMPFRPSWIYPSVAEIDVI | soluble
MGSDKIHHHHHHMNRTAVGVDIAKSVFQVHYVDPETGEIVNKPIKRAKFLEFFANRARCLIGMEACGGAQHWARQLMKMGHEIRLMPAEFVKAFNIRNKNDAADARAIWLAVQQPGKPVAVKTEMQQAMLALHRMRRQLVTFRTMQINGLRGLPTEYGEVMGRGRAALDKAIPEVLRRVAERLPAVVIDTLREQWNGLTKLDEQVACIERRMREWKKQDKAVQAISEIPGVGLLTATAAVAMMGDAKAFSSGREFAAWAGLVPKQTGSGGKVNLHGISRRGDTYLRTLLIHGARSVLTHAKDPGPWVEQMKKRRPLNVVVVALANKIARTIWAGTFLRYSYNFP | not soluble
MYQKKDRACRIRRKQCKLFGDWQKSVITQLKTIQDKNISIHKAFGCMIRLAANLFYAHSKIIHFMSEEAGEDAQRKAAEREAKKAEVRKRLEEAGNKKKAKKGFLTPERKKKLRKLLMVKAAEDLKRQQLLKEQERQKALADRTISLPNVDSIDDKGQLEKIYNDLWARLTQLEEEKYDINYVVSQTEAEINSLTIEVNDLRGKFVKPSLKKVSKYDNKFKKSGESKAGTKEDFRANLKIVKKDVMEAIVNVKKKDDKPDWSKKNKDAKAEDSAPAAVAPEAEPVAEEAEAEPEAEEEEGEEEEEE | not soluble
MNQLIFDFAAHDYPSFDKFLGTENAELVYVLRHKHGQFIYVWGEEGAGKSHLLQAWVAQALEAGKNAAYIDAASMPLTDAAFEAEYLAVDQVEKLGNEEQALLFSIFNRFRNSGKGFLLLGSEYTPQQLVIREDLRTRMAYCLVYEVKPLTDQEKIDALASMAAARQVTVDSEIFEYLLKHWRRDMDSLMMMLDTLDNYAVTMGKRITLPLLRQLLKQQETQLEHHHHHH | soluble
GAPLKAVSAFAPPLHTQDFNLYSGEVHAHFTDYEAGMAFARQENKPVLLDFSGHGCVNCRKMENAVWIDPTVKSMLEKDYVLITLMVDEKKPLAEPLTIVFDGKEKTLRTVGDKWSYLQSHKFGANAQPFYVAIDHEGKPLSASYSYNEDVPLYVDFLKGGLQEFKKRKNK | not soluble
MFFDDTYLDYKARVSYSLFCAKDFNETAAFIKANRILMTSTELAAYMLKPENYKYAIIARIKNSMVGIVLFTDFESEVFINHLYVSPIHRFKGIGSNLLKELKAFMGQRTVSYIDTSNNYMPWMEVLDVSKKAAVINQLGSFYKCSK | not soluble
MGIRELNLTKEQHEWLNGWLELWAHGLSGRLEKRMSSVIAKFMESIEPGRVMTRPMCNDDDGMLISQVVDSVMYIDKKAFGILLSYYAHGSSKHAIASYYHRVARPRKMLCRGGGRIQKPSLATCRREVDEILNASLFMIYPVLDSAFKNRKRVEKIKHVALEHHHHHH | soluble
MISGHGDFPIALKESSGMIFGEENNLIAVPFFKGEGIQTLQEKYHQALKDIPEEHEVLFLVDIFGGTPYNAAASFIAEDQRMDMAAGVNLPILLEVLSLREHLALKDLLNNLKAMSQQSFQVCSEHLEKVKTANQD | not soluble
MEDFGRQRPYGDGGMQIQPYHGNQGGDFRSYSASYGTRENNIYDVKKEKSIARSKSWGITDPELQRKKRVASYKMYGVEGKVKGSFRNSFRWLKQRYTQVVYGWW | not soluble
MLNPLRALTLGGLLLFSTLGHAAPAAPDALRIGYQKGSVSMVLAKSHQLLEQRYPQTHISWIEFPAGPQMLEALNVGSIDIGSTGDIPPIFAQAAGADLVYIGAEPPKPKAEVILVAQGSPIHNVAELKGKKVAFQKGSSSHNLLLRALQLAGLKFSDIQPVYLAPADARAAFQQGNVDAWAIWDPYYSAALLQGGARVLTDGTDLKQTGSFYLASRPYAERNGAFIEGVLDTFTQADALTHSQRAQSITLLAKTMGLPEAVIASYLDHRPPTAVTPVSAETAARQQQTADLFYENKLVPKKVDIRARIWQPTATQGAKS | not soluble
MDMNFDLYMNGVVEQARNEIESAGYEQLTTAEDVDKVLKQDGTTLVMINSVCGCAGGIARPAASHALHYDVLPDRLVTVFAGQDKEATQRAREYFEGYAPSSPSFALVKDGKITEMIERHQIEGHDVMNVINQLQTLFNKYCEERLEHHHHHH | soluble
MWRTRVVHTTGYVYQSPVTASYNEARLTPRSSSRQNLVLNRVETIPATRSYRYIDYWGTAVTAFDLHAPHTELTVTSSSVVETERPEPLAAKATWADLQSTAVIDRFDEVLRPTPHTPASARVDAVGRRIRKCHEPSEAVVAAARWARSELDYIPGTTSVHSSGLDALEQGKGVCQDFVHLSLMVLRSMGIPCRYVSGYLHPKRDAVVGKTVDGRSHAWVQAWTGGWWHYDPTNDNEITEQYISVGVGRDYTDVSPLKGIYSGEGVTDLDVVVEITRLA | soluble
MAYLYELEGIYAQLQSMDLDEETFQDTLDSIDFQSDLENNIEYFVKMLKNVQADAEKYKAEKEAFYKKQKQAEAKAEKYKETIRLAMELSQKKKVDAGMFKVSLRRSKKVEILDETKIPLDYMQEKIEYKPMKAEISKALKSGIDISGVELIETESLQVK | not soluble
